Measured values as given in the DeepSol protein solubility set.

Test: soluble on expression in E. coli; label from the status in PepcDB or PDB records

Sequence | soluble on expression in E. coli
MGSDKIHHHHHHVVQKFNRLFGKSNKGVGIELAPERVNVVQLRKQRQGLKLETFTSVAVPEGVVTDGQITDPAAMAQLIQQALAESKIKTTRVATGVPGRDSIVRIIPVPTELDDKELREMVLNHEAGLYLPYPREEADVDYQKLDYFVDEDGIEKVHVLLVATRKEITDTYISTFEQAGLQIDVLEINSFALIRTIREQLRQFGPQEAAVLVDIEFDSTEIAIIVNGVPQFSRTVPIGTYQMQTALARAMSLPTSRDMELLHGMIIPPTPLDGGKTGVTEIDPGMAAILRVLGELTDELRRSIDFYLNQSENLEVAQILLAGPGGGLQQLDEFFTQRLSLPTTQIDPIGSLSLEVDTDKYPQVKRSGLAIVLGLGMREV | not soluble
MKGGDRAYTRGPSLGWLFAKCCCCFPCRDAYSHSSSENGGKSESVANLQAQPSLNSIHSSPGPKRSTNTLKKWLTSPVRRLNSGKADGNIKKQKKVRDGRKSFDLGSPKPGDETTPQGDSADEKSKKGWGEDEPDEESHTPLPPPMKIFDNDPTQDEMSSSLLAARQASTEVPTAADLVNAIEKLVKNKLSLEGSSYRGSLKDPAGCLNEGMAPPTPPKNPEEEQKAKALRGRMFVLNELVQTEKDYVKDLGIVVEGFMKRIEEKGVPEDMRGKDKIVFGNIHQIYDWHKDFFLAELEKCIQEQDRLAQLFIKHERKLHIYVWYCQNKPRSEYIVAEYDAYFEEVKQEINQRLTLSDFLIKPIQRITKYQLLLKDFLRYSEKAGLECSDIEKAVELMCLVPKRCNDMMNLGRLQGFEGTLTAQGKLLQQDTFYVIELDAGMQSRTKERRVFLFEQIVIFSELLRKGSLTPGYMFKRSIKMNYLVLEENVDNDPCKFALMNRETSERVVLQAANADIQQAWVQDINQVLETQRDFLNALQSPIEYQRKERSTAVMRSQPARLPQASPRPYSSVPAGSEKPPKGSSYNPPLPPLKISTSNGSPGFEYHQPGDKFEASKQNDLGGCNGTSSMAVIKDYYALKENEICVSQGEVVQVLAVNQQNMCLVYQPASDHSPAAEGWVPGSILAPLTKATAAESSDGSIKKSCSWHTLRMRKRAEVENTGKNEATGPRKPKDILGNKVSVKETNSSEESECDDLDPNTSMGILNPNFIQEVAPEFLVPLVDVTCLLGDTVILQCKVCGRPKPTITWKGPDQNILDTDNSSATYTVSSCDSGEITLKICNLMPQDSGIYTCIATNDHGTTSTSATVKVQGVPAAPNRPIAQERSCTSVILRWLPPSSTGNCTISGYTVEYREEGSQIWQQSVASTLDTYLVIEDLSPGCPYQFRVSASNPWGISLPSEPSEFVRLPEYDAAADGATISWKENFDSAYTELNEIGRGRFSIVKKCIHKATRKDVAVKFVSKKMKKKEQAAHEAALLQHLQHPQYITLHDTYESPTSYILILELMDDGRLLDYLMNHDELMEEKVAFYIRDIMEALQYLHNCRVAHLDIKPENLLIDLRIPVPRVKLIDLEDAVQISGHFHIHHLLGNPEFAAPEVIQGIPVSLGTDIWSIGVLTYVMLSGVSPFLDESKEETCINVCRVDFSFPHEYFCGVSNAARDFINVILQEDFRRRPTAATCLQHPWLQPHNGSYSKIPLDTSRLACFIERRKHQNDVRPIPNVKSYIVNRVNQGT | soluble
MAFEGLSERLQATMQKMRGKGKLTEADIKIMMREVRLALLEADVNFKVVKEFIKTVSERALGSDVMQSLTPGQQVIKIVQDELTQLMGGENTSINMSNKPPTVVMMVGLQGAGKTTTAGKLALLMRKKYNKKPMLVAADIYRPAAINQLQTVGKQIDIPVYSEGDQVKPQQIVTNALKHAKEEHLDFVIIDTAGRLHIDEALMNELKEVKDIAKPNEIMLVVDSMTGQDAVNVAESFDDQLDVTGVTLTKLDGDTRGGAALSIRSVTQKPIKFVGMSEKLDGLELFHPERMASRILGMGDVLSLIEKAQQDVDQEKAKDLEKKMRESSFTLDDFLEQLDQVKNLGPLDDIMKMIPGMNKMKGLDKLNMSEKQIDHIKAIIQSMTPAERNNPDTLNVSRKKRIAKGSGRSLQEVNRLMKQFNDMKKMMKQFTGGGKGKKGKRNQMQNMLKGMNLPF | not soluble
AVVASLKPVGFIASAIADGVTETEVLLPDGASEHDYSLRPSDVKRLQNADLVVWVGPEMEAFMQKPVSKLPGAKQVTIAQLEDVKPLLMKSIHGDDDDHDHAEKSDEDHHHGDFNMHLWLSPEIARATAVAIHGKLVELMPQSRAKLDANLKDFEAQLASTETQVGNELAPLKGKGYFVFHDAYGYFEKQFGLTPLGHFTVNPEIQPGAQRLHEIRTQLVEQKATCVFAEPQFRPAVVESVARGTSVRMGTLDPLGTNIKLGKTSYSEFLSQLANQYASCLKGD | soluble
GSHMGGIEVLGVKTGVDSFTEVECFLNPQMGNPDEHQKGLSKSLAAEKQFTDDSPDKEQLPCYSVARIPLPNINEDLTCGNILMWEAVTVKTEVIGVTAMLNLHSGTQKTHENGAGKPIQGSNFHFFAVGGEPLELQGVLANYRTKYPAQTVTPKNATVDSQQMNTDHKAVLDKDNAYPVECWVPDPSKNENTRYFGTYTGGENVPPVLHITNTATTVLLDEQGVGPLCKADSLYVSAVDICGLFTNTSGTQQWKGLPRYFKITLRKRSVKN | soluble
MAIVDPIVTGLNAGWLHTDASQLQANQQFEADVVIVGTGAGGGVAAEILTQAGLSVIMIEAGPLKSSSDFNMEERVAYPNLYQQAAAMKTADKAIGIFQGRAVGGSTTINWTTSIRTPKEALAFWAQHKSVAGLDPEALAPWFDQMEQRLNIHEWNYEPNRNNGALKQGCINLGWDYTVIKRNVAGCWNTGYCGMGCPVNAKQSMLVTTIPSALEKGAQLISRAKVVKIEHHNGQVFALKAQALDVNLRPTAVELLFKAKHYILSAGAIHTPTLMMRSEVPDPHQLLGKRTFLHPTVLSGGVFADTINAHSGAPQSIYSDEFVWKNGADGELGYKLEVPPVHPILIASKTIGYGVSHAELMAQFNQLQVTIALIRDGYHPDSQGGQVHLTPTGFSLDYPLTDAFWRAVRRAYASMAELQFSAGALKVLPISDGMPYLSSWKEAKESIAQMDLAPLKTVVASAHVMGGCPLGEDEKLSMVNSYGQSHYLNNLSVMDGSIFPTSLGANPQLSIYGITARNATALAQKLKDGREPQLEHHHHHH | not soluble
METGTPLIAETIALTEKKVAMALDDIIKLAKRKTNVNKGKKPRREKNKNQNFNGAARNNTSNVRHHMNSLSAVRQGAVGKRRSRFQGIQFPVTTNIARKASTAAPLDFRGRAFNGGRMTSANQSRLIAPPVQNISVQARVNAKRHEVDQKVEHRGGKRKTLDSRFASMKEQRMTINNYGVTVQVPRLPPWVRARRFSQ | not soluble
MEREQRHKVIMRTIDRPGITRIDALTELTGVSAVTIHRDLVELEQAGFLARTHGGAKRVPKRGTPQPFAVRQAEDREAKRILAQATAQLIADDEAVIFDNGTTCQAVAQELAGRPITALCLSLHSAVALGSRAGTNVFIPGGPVENDSLALSGPAVITALRDFSADVVILGSCSTSLEHGLATTTYDDAENKRAAIHAATRRILVVSARKLNHVSTFRFADVADLHQLVTTSDAPREILAEIRDLGVQVITVPAPDEQRSLEHHHHHH | soluble
MTRQFLEFEQPIEELNQKIEALRMVGSDNEVNLSEEIARLEAKCSELTENIFSRLEPWQIAQMARHPLRPQTTDYIERIFTDFQELHGDRSYSSAPAIIGGMARLNGEPVMVLGHQKGKRTKEKVYRNFGMARPEEYRKALRLMRMAEKFKMPVVTFIDTAGAYPGIGAEERNQSEAIARNLFAMSRIKTPIVCIVTGEAGSGGALAIGVGDKIIMLQFSIYSVISPEGCASILWKDASKASEAARAMGITADRIFENELVDMVVPEPLGGAHRDVDEMASRLKRLLTSELQALKKVPLDQLIELRYQKFMAMGACD | not soluble
MSERAYNFNAGPAALPLEVLERAQAEFVDYQHTGMSIMEMSHRGAVYEAVHNEAQARLLALLGNPTGYKVLFIQGGASTQFAMIPMNFLKEGQTANYVMTGSWASKALKEAKLIGDTHVAASSEASNYMTLPKLQEIQLQDNAAYLHLTSNETIEGAQFKAFPDTGSVPLIGDMSSDILSRPFDLNQFGLVYAGAQKNLGPSGVTVVIVREDLVAESPKHLPTMLRYDTYVKNNSLYNTPPSFGIYMVNEVLKWIEERGGLEGVQQANRKKASLIYDAIDQSGGFYRGCVDVDSRSDMNITFRLASEELEKEFVKASEQEGFVGLKGHRSVGGLRASIYNAVPYESCEALVQFMEHFKRSRG | soluble
